# Measured values published in the supplement of paper PMC11865577.
# How the values were obtained:
# Assay in all cases: pull-down binding Z-score (relative to library population); higher = stronger binding
# [1] = system: G-clamp-N3 (biotin conjugate); settings: RNA library: Library-1 (pre-miRNA loops + repeats)
# Method in brief: (§1)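 Streptavidin beads bearing 100 pmol of a biotin-conjugated small molecule were incubated for 60 min at 25 °C with 1 μg of heat-folded, Cy5- or Cy3-end-labelled RNA library in phosphate/NaCl/KCl buffer. Hot SDS eluted the RNA that stayed bound after three washes, and this RNA was hybridised for 20 h at 55.5 °C to a DNA barcode microarray. Binding was expressed as a Z-score against the library mean and standard deviation, after subtraction of a beads-only signal and trimmed averaging of barcoded replicate probes.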
# [2] = system: TO-3-N3 (biotin conjugate); settings: RNA library: Library-2
# Method in brief: as §1
# [3] = system: TO-3-N3-2 (biotin conjugate); settings: RNA library: Library-2
# Method in brief: as §1
# [4] = system: TO-N3 (biotin conjugate); settings: RNA library: Library-2
# Method in brief: as §1
# [5] = system: TO-N3-2 (biotin conjugate); settings: RNA library: Library-2
# Method in brief: as §1
Sequence,pull-down binding Z-score [1],pull-down binding Z-score [2],pull-down binding Z-score [3],pull-down binding Z-score [4],pull-down binding Z-score [5]
UAUUCUGAUGUCCAAGUGGAAA [hsa-mir-372],-0.198,-0.733,-0.345,-0.772,-0.504
UAUUGCAAAGAUUUUCAAUA [hsa-mir-3915],-0.191,-0.611,-0.307,-0.988,-1.1
UAUUGGGCCAAUUCCCCCAAUG [hsa-mir-4781],-1.57,-1.13,-0.791,-1.38,-1.12
UAUUGUGUUGAUCAACAAUA [hsa-mir-5590],-0.46,-0.858,-0.465,-0.668,-0.668
UAUUUCAAAAGACUAGAGGUAGGAAAUGAG [hsa-mir-3975],2.94,-0.57,0.381,-0.42,-0.211
UAUUUUGUUAUUCUGGUCACAGAAUGACCUAGUA [hsa-mir-630],-1.22,0.141,-0.134,-0.308,-1.11
UCAAACAAGUUUCCAAAUUGUUUGA [hsa-mir-488],-0.178,0.554,-0.496,0.194,-1.02
UCACAAUUGCGCUACAGAACUGUUGA [hsa-mir-203b],0.254,0.859,0.314,1.12,0.308
UCACAGGGCUCAGGGAAUGUGUCUGCACCUGUGA [hsa-mir-587],0.296,0.431,0.0576,0.469,0.206
UCACAGUUGGUUUCUGACACGUGG [hsa-mir-4535],0.283,0.237,-0.0393,0.305,-0.0476
UCACUGCUGCUGGCGCCCUGA [hsa-mir-943],-0.764,0.0735,0.0365,0.432,0.911
UCACUGUGAACAGUCUCAGUCAGUGA [hsa-mir-183],-0.0454,-0.81,-0.331,-0.919,-0.631
UCAGACACAUCAGAUCCCUUAUCUGUAAAAUGGGCAUGA [hsa-mir-640],0.152,-0.19,-0.013,0.00353,0.521
UCAGAUAUUUAAGUUAACAGUAUUUGA [hsa-mir-580],0.0815,-0.784,-0.347,-1.1,-1.5
UCAGCACCUGAACGCCAAGGCUGG [hsa-mir-3150a],0.168,-0.481,-0.591,-0.348,0.123
UCAGCCCCAUAUGUAUCUGAAGGCUGA [hsa-mir-5694],-0.92,-0.404,-0.286,-0.337,0.0924

Sequence,pull-down binding Z-score [1],pull-down binding Z-score [2],pull-down binding Z-score [3],pull-down binding Z-score [4],pull-down binding Z-score [5]
UCAGCUGUAAUACAUGGAUUGGCUGG [hsa-mir-30b],0.592,-0.368,-0.198,-0.379,-0.252
UCAGCUGUGAGCUCAAGGUGGCUGG [hsa-mir-30c-1],1.32,0.424,0.093,0.804,0.98
UCAGCUGUGGAAAGUAAGAAAGCUGG [hsa-mir-30c-2],-0.0598,0.97,1.22,1.28,1.31
UCAGGAUCUACUCAUGUCGUCUUUGG [hsa-mir-573],-1.01,-0.404,-0.199,-0.165,0.472
UCAGGCUUUAAUGUUUGAAGUAAUGUCAGU [hsa-mir-6874],0.286,0.511,0.146,0.555,0.228
UCAGGGAGAAAGUGCAUACAGCCCCUG [hsa-mir-328],-0.344,-0.47,-0.166,-0.112,0.36
UCAGGUGAAUGUGUCUGG [hsa-mir-3916],-1.06,-0.539,-0.427,-0.773,-0.347
UCAGUUUUGUAGCAUCAAAACU [hsa-mir-4521],-0.216,-0.308,-0.161,-0.342,-0.134
UCAUAAAGAUGAUC [hsa-mir-8067],-0.0232,0.251,0.0624,0.381,0.0453
UCAUAAAUAUUUUAAGGAAUGACCCGGCCCUGGGG [hsa-mir-4285],-0.171,-0.306,0.31,-0.199,0.308
UCAUUUAUGUGAACUAAAAUAUAAAUUU [hsa-mir-513a-2_513a-1],-1.8,-1.03,-0.361,-1.25,-1.11
UCCAACCUGAAAUCCUUCUGUAGGUUGAG [hsa-mir-5702],1.18,-0.291,-0.273,-0.245,0.0189
UCCACAAGGAGGGGAUGACCCUUGUGGG [hsa-mir-4437],-0.125,4.12,3.06,3.14,1.37
UCCACACUGACAAGGGCCGUGGGG [hsa-mir-3191],-0.843,1.19,0.217,1.19,0.967
UCCACCCCCAGAGAAUCCCUAAACCGGGGGUGGA [hsa-mir-1289-1],-1.69,-0.51,-0.243,-0.645,-0.449
UCCACCCUGGUCCAGGUCCACAGCAGUGGA [hsa-mir-4644],-0.617,0.173,0.0936,0.441,0.479
